Test results taken from publication doi:10.1101/2025.11.18.689095 (bioRxiv, 2025).
Where no end group is shown, it is not given here.

B1: human Tom70 (residues 108–608) (domain or fragment)
chain: MNSLDRAQAAKNKGNKYFKAGKYEQAIQCYTEAISLCPTEKNVDLSTFYQNRAAAFEQLQKWKEVAQDCTKAVELNPKYVKALFRRAKAHEKLDNKKECLEDVTAVCILEGFQNQQSMLLADKVLKLLGKEKAKEKYKNREPLMPSPQFIKSYFSSFTDDIISQPMLKGEKSDEDKDKEGEALEVKENSGYLKAKQYMEEENYDKIISECSKEIDAEGKYMAEALLLRATFYLLIGNANAAKPDLDKVISLKEANVKLRANALIKRGSMYMQQQQPLLSTQDFNMAADIDPQNADVYHHRGQLKILLDQVEEAVADFDECIRLRPESALAQAQKCFALYRQAYTGNNSSQIQAAMKGFEEVIKKFPRCAEGYALYAQALTDQQQFGKADEMYDKCIDLEPDNATTYVHKGLLQLQWKQDLDRGLELISKAIEIDNKCDFAYETMGTIEVQRGNMEKAIDMFNKAINLAKSEMEMAHLYSLCDAAHAQTEVAKKYGLKPPTL
notes: human Tom70 (translocase of outer mitochondria membrane 70), residues 108-608; N-terminal Avi tag, His6 tag, (GGS)5 linker and TEV site removed by TEV protease; also called hTom70; free Tom70; source: E. coli BL21 (DE3), purified (Ni-NTA, TEV cleavage, second Ni column, SEC); not shown: Avi, N-terminal, cleaved; His6, N-terminal, cleaved
B2: ^19F-labeled Tom70 (5-fluoro-tryptophan, residues 108–608) (domain or fragment)
chain: B1 chain
modifications: 5-fluoro-tryptophan at W169 and W523
notes: human Tom70, residues 108-608; also called ^19F Tom70; 5F-Trp Tom70; source: E. coli BL21(DE3) in M9 media supplemented with 5-fluoro-tryptophan, purified as unlabeled Tom70; not shown: Avi, N-terminal, cleaved; His6, N-terminal, cleaved
B3: Hsp90_(EEVD) peptide (peptide)
peptide: YDTSRMEEVD-OH
notes: tyrosine added to aid with quantification; C-terminal residues 724-732 of human Hsp90α; 10 residues: an added N-terminal Tyr and nine Hsp90 residues; source: synthetic peptide (LifeTein)

Legend:
Details in all cases: both partners purified
[1] = molecular target: T1, biotinylated human Hsp90α (residues 1–732), tags not cleaved (human, UniProt P07900 1-732, biotin (enzymatic protein biotinylation kit)); assay: BLI + ITC; kon estimated indirectly as koff from BLI (immobilised biotinylated Hsp90) divided by KD from ITC (untagged Hsp90)
T1 construct: human Hsp90α, residues 1-732; N-terminal Avi tag, His6 tag, (GGS)5 linker and TEV site remain on the chain; held on streptavidin probes; also called biotinylated Hsp90; surface-immobilized Hsp90; source: E. coli BL21 Star (DE3) pLysS, purified (Ni-INDIGO, HiPrep Q; no TEV cleavage), enzymatically biotinylated; not shown: Avi, N-terminal, kept; His6, N-terminal, kept

[2] = molecular target: T2, human Hsp90α (residues 1–732), full-length (human, UniProt P07900 1-732); assay: ITC; Tom70 (400 μM), Tom70:Orf9b_(Helix) complex (400 μM), Tom70:Orf9b complex (500 μM) or truncation mutant complexes titrated into Hsp90 (20 μM); 20°C; 20 mM sodium phosphate pH 8, 150 mM NaCl, 2 mM TCEP, 10% glycerol; 1:1 binding model
T2 construct: human Hsp90α, residues 1-732; also called full-length Hsp90; heat shock protein 90; source: E. coli BL21 Star (DE3) pLysS, purified (Ni-INDIGO, TEV cleavage, second Ni-INDIGO, HiPrep Q); not shown: Avi, N-terminal, cleaved; His6, N-terminal, cleaved

[3] = molecular target: T2, human Hsp90α (residues 1–732), …; assay: NMR titration
[4] = molecular target: B1; assay: ITC; Hsp90_(EEVD) (400–500 μM) titrated into Tom70 or its complexes (30 μM) in the cell; 20°C; 20 mM sodium phosphate pH 8, 150 mM NaCl, 2 mM TCEP, 10% glycerol; 1:1 binding model

Binder: B1
- kon [1]: 500000 M⁻¹ s⁻¹
- Kd [2]: 3000 nM

Binder: B2
- binding result [3]: binds

Binder: B3
- fold lower affinity than full-length Hsp90 for free Tom70 [4]: 4 fold
